From paper PMC12543323, “IFIT1 is rapidly evolving and exhibits disparate antiviral activities across 11 mammalian orders” come the findings set out here.

Data set [1] addresses T1, human IFIT1 R187H (Homo sapiens, UniProt P09914 1-478, R187H).
T1 sequence: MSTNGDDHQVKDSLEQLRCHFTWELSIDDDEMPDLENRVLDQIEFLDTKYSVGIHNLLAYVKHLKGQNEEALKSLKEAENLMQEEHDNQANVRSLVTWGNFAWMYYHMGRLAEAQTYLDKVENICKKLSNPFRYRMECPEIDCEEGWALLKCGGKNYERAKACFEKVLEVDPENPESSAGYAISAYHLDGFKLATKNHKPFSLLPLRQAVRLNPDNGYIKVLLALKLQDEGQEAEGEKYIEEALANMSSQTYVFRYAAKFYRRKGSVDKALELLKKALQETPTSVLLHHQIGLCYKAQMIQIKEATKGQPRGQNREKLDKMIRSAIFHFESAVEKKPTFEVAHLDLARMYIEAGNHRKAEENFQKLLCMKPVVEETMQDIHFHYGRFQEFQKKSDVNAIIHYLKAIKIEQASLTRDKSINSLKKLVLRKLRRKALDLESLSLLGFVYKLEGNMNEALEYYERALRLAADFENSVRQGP
Description: EMSA; 50 mM Tris pH 8.0 ([…], room temperature 20 min; […]. Particulars: protein: recombinant; tags: N-terminal 6xHis-SUMO (smt3) removed by Ulp1; label: none (SYBR Gold post-stain).

For data set [2], the target named is T2, human IFIT1 (Homo sapiens, UniProt P09914 1-478).
T2 sequence: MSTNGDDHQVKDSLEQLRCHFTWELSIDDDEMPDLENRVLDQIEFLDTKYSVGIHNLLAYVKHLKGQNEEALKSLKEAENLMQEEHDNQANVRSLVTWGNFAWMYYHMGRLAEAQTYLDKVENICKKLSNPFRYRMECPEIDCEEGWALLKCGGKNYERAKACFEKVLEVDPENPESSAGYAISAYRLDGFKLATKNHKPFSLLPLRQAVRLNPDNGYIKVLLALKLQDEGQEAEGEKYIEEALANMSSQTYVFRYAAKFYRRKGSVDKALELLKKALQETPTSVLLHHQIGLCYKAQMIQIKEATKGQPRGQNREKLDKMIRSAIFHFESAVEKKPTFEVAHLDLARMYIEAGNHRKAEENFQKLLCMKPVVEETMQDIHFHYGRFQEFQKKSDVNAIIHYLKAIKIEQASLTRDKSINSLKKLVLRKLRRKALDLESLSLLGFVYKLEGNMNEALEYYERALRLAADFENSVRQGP
Described as above. The settings on record: protein: recombinant; tags: N-terminal 6xHis-SUMO (smt3) removed by Ulp1; label: none (SYBR Gold post-stain).

Take AUAGGCGGCGCAUGAGAGAAGCCCAGACCAAUUACCUACCC (ssRNA, 5' Cap0 (m7GpppA, no 2'-O methylation; at least 95% by LC/MS)) [Cap0 VEEV TC-83 5' UTR RNA (41 nt)]: the binding result in data set [1] is listed as “no binding”; in data set [2], “binds”.
